# According to publication PMC4084637:
# pKd: −log10 of the molar value.
# Key:
# antibody PGT128 (human) = assay: SPR
# antibody PGT135 (human) = assay: SPR
# antibody PGT135 (human), sequence (heavy, as listed by the source, chain 1 of 2): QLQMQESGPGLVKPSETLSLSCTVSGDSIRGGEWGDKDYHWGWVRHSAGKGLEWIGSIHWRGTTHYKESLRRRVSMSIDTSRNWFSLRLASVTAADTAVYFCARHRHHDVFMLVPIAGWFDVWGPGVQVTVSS
# antibody PGT135 (human), sequence (light, as listed by the source, chain 2 of 2): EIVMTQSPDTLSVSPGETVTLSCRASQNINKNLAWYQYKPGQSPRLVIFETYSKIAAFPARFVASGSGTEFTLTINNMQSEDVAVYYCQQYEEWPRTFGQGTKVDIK
# antibody PGT128 (human), sequence (heavy, as listed by the source, chain 1 of 2): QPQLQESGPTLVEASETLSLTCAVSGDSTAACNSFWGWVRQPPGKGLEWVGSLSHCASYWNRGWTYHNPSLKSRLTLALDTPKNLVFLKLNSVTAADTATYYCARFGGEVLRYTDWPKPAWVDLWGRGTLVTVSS
# antibody PGT128 (human), sequence (light, as listed by the source, chain 2 of 2): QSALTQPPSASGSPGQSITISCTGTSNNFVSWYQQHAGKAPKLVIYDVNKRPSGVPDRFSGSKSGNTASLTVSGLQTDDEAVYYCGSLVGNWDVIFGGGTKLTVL
substance,measurement,setting,value
YU2 gp120 (from UniProt P35961 32-498) (natural protein),pKd,antibody PGT128 (human),7.96
same,pKd,antibody PGT135 (human),7.74
